To fix the notation:
T1: CD123 (Homo sapiens (Human), UniProt P26951 19-305, limits assumed)
T1 construct: The CD123 construct used in the ELISA is not described; also called CD123-Signal
T1 sequence: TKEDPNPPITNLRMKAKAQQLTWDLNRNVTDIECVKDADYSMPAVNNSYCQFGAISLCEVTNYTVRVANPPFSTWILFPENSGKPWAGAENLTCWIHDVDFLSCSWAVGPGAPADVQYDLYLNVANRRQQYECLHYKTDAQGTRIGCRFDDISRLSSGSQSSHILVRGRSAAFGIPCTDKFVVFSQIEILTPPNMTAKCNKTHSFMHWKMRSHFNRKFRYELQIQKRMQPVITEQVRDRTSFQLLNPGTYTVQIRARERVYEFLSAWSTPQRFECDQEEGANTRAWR

B1: D domain of SEQ ID NO: 588 (designed binder)
chain: MGSWEEFDTRLLAIFGRLGALGGSEAELALFEMLIAKFEDDLQNYKGKGNPEVEALSEEAFAIDHELGAYRHN
B2: D domain of SEQ ID NO: 586 (designed binder)
chain: MGSWEEFYMRLVAIHMRLRALGGSEAELAVFENYIAEFEEYLQYYKGKGNPEVEALTIEADAIGTELGAYRHN
B3: D domain of SEQ ID NO: 590 (designed binder)
chain: MGSWEEFHERLDAIDERLEALGGSEAELAFFEDDIASFEDWLQWYKGKGNPEVEALSREADAINFELEAYRHN
B4: D domain of SEQ ID NO: 587 (designed binder)
chain: MGSWDEFYYRLVAITHRLHALGGSEAELAWFEDDIAGFEWDLQTYKGKGNPEVEALYKEAGAIGMELTAYRHN
B5: D domain of SEQ ID NO: 596 (designed binder)
chain: MGSWEEFHWRLGAIDARLEALGGSEAELAWFEDGIADFEAILQDYKGKGNPEVEALDSEAVAIHHELWAYRHN
B6: D domain of SEQ ID NO: 604 (designed binder)
chain: MGSWAEFDSRLDAIAQRLFALGGSEAELAHFEDFIAQFEYSLQEYKGKGNPEVEALSNEADAIFNELKAYRHN
B7: D domain of SEQ ID NO: 610 (designed binder)
chain: MGSWFEFTIRLEAIQDRLDALGGSEAELAWFEWDIAEFEEGLQFYKGKGNPEVEALHTEADAIMNELVAYRHN
B8: D domain of SEQ ID NO: 619 (designed binder)
chain: MGSWHEFEKRLYAIEDRLIALGGSEAELAWFEDSIAWFEWDLQMYKGKGNPEVEALNEEADAIYQELDAYRHN
B9: D domain of SEQ ID NO: 618 (designed binder)
chain: MGSWYEFEERLDAIEDRLIALGGSEAELAIFEDIIAFFEQDLQYYKGKGNPEVEALEMEAEAISIELDAYRHN
B10: D domain of SEQ ID NO: 613 (designed binder)
chain: MGSWIEFFHRLDAIQDRLDALGGSEAELAYFEWAIADFEHMLQLYKGKGNPEVEALQFEAFAIEGELYAYRHN
B11: D domain of SEQ ID NO: 606 (designed binder)
chain: MGSWTEFEERLEAIWDRLYALGGSEAELAAFEWDIAYFEDGLQEYKGKGNPEVEALFMEAEAIIRELKAYRHN
B12: D domain of SEQ ID NO: 605 (designed binder)
chain: MGSWAEFDSRLIAIFDRLWALGGSEAELAWFEDDIAQFEQHLQAYKGKGNPEVEALRQEADAITFELKAYRHN
B13: D domain of SEQ ID NO: 625 (designed binder)
chain: MGSWFEFDDRLEAIFDRLWALGGSEAELAMFEFAIAEFEDALQEYKGKGNPEVEALYEEAVAIDEELYAYRHN
B14: D domain of SEQ ID NO: 600 (designed binder)
chain: MGSWYEFWDRLTAIEHRLWALGGSEAELAYFEDSIAHFEGSLQVYKGKGNPEVEALYKEAEAIEWELEAYRHN
B15: D domain of SEQ ID NO: 607 (designed binder)
chain: MGSWYEFEDRLAAIWDRLNALGGSEAELAIFEWDIAWFEEGLQEYKGKGNPEVEALKHEASAIQTELFAYRHN
B16: D domain of SEQ ID NO: 624 (designed binder)
chain: MGSWVEFDNRLFAIDERLWALGGSEAELAWFEEEIASFEDNLQKYKGKGNPEVEALQLEAFAIMEELDAYRHN
B17: D domain of SEQ ID NO: 601 (designed binder)
chain: MGSWYEFDDRLWAIFDRLFALGGSEAELAFFEDSIAEFEEELQHYKGKGNPEVEALYLEAWAIENELGAYRHN
B18: D domain of SEQ ID NO: 612 (designed binder)
chain: MGSWEEFDYRLYAIQDRLYALGGSEAELAFFEWEIADFEHMLQMYKGKGNPEVEALFQEADAIDAELHAYRHN
B19: D domain of SEQ ID NO: 620 (designed binder)
chain: MGSWIEFEDRLDAITDRLWALGGSEAELAEFEHQIAFFEEDLQWYKGKGNPEVEALHMEAEAIMEELGAYRHN
B20: D domain of SEQ ID NO: 617 (designed binder)
chain: MGSWHEFEERLMAIEDRLWALGGSEAELAEFEQWIALFEYDLQEYKGKGNPEVEALGMEAFAINNELSAYRHN
B21: D domain of SEQ ID NO: 623 (designed binder)
chain: MGSWEEFLFRLEAIQDRLWALGGSEAELAWFEYEIASFEDVLQSYKGKGNPEVEALSTEAKAIDYELFAYRHN
B22: D domain of SEQ ID NO: 591 (designed binder)
chain: MGSWNEFYERLEAIDRRLFALGGSEAELALFEWMIADFEDDLQMYKGKGNPEVEALINEAGAIGFELEAYRHN
B23: D domain of SEQ ID NO: 614 (designed binder)
chain: MGSWYEFSSRLNAIDDRLWALGGSEAELAYFETDIADFESLLQWYKGKGNPEVEALLNEADAIDYELYAYRHN
B24: D domain of SEQ ID NO: 609 (designed binder)
chain: MGSWMEFEDRLIAIWARLDALGGSEAELAWFEADIADFEESLQEYKGKGNPEVEALIFEAIAINKELMAYRHN
B25: D domain of SEQ ID NO: 594 (designed binder)
chain: MGSWNEFLLRLDAIEHRLFALGGSEAELAEFEWEIADFEDDLQWYKGKGNPEVEALVEEAEAIDVELVAYRHN
B26: D domain of SEQ ID NO: 589 (designed binder)
chain: MGSWREFDQRLWAIDWRLEALGGSEAELAMFEWMIATFEDDLQWYKGKGNPEVEALYREAFAIDWELDAYRHN
B27: D domain of SEQ ID NO: 599 (designed binder)
chain: MGSWSEFWFRLDAIEDRLWALGGSEAELAEFEDNIALFEYSLQHYKGKGNPEVEALVKEANAIDDELGAYRHN
B28: D domain of SEQ ID NO: 622 (designed binder)
chain: MGSWEEFEDRLFAIDSRLWALGGSEAELAEFENIIASFEEVLQEYKGKGNPEVEALSVEAFAIDRELGAYRHN
B29: D domain of SEQ ID NO: 592 (designed binder)
chain: MGSWTEFTQRLEAIVDRLFALGGSEAELAEFENSIADFEWDLQWYKGKGNPEVEALNREAVAIDNELWAYRHN
B30: D domain of SEQ ID NO: 603 (designed binder)
chain: MGSWSEFVDRLDAIFDRLWALGGSEAELAWFEDTIAHFEWNLQEYKGKGNPEVEALNGEADAITDELHAYRHN
B31: D domain of SEQ ID NO: 615 (designed binder)
chain: MGSWFEFEYRLDAIIDRLFALGGSEAELAEFESMIANFEYSLQEYKGKGNPEVEALYFEADAIVDELTAYRHN
B32: D domain of SEQ ID NO: 602 (designed binder)
chain: MGSWNEFVERLSAIDHRLWALGGSEAELADFEQQIAEFEIHLQEYKGKGNPEVEALDFEADAIFDELLAYRHN
B33: D domain of SEQ ID NO: 608 (designed binder)
chain: MGSWLEFESRLWAIWDRLDALGGSEAELAHFEQDIADFEMSLQEYKGKGNPEVEALIREAEAIETELYAYRHN
B34: D domain of SEQ ID NO: 621 (designed binder)
chain: MGSWMEFEDRLMAIVDRLWALGGSEAELADFEWNIAMFEEELQWYKGKGNPEVEALGDEAEAIEWELYAYRHN
B35: D domain of SEQ ID NO: 597 (designed binder)
chain: MGSWYEFYERLWAIDDRLWALGGSEAELAEFEDSIATFEPSLQMYKGKGNPEVEALVAEAWAIFDELAAYRHN
B36: D domain of SEQ ID NO: 616 (designed binder)
chain: MGSWLEFEYRLDAIYDRLFALGGSEAELAAFEQDIADFEKYLQYYKGKGNPEVEALWEEADAIMWELFAYRHN
B37: D domain of SEQ ID NO: 598 (designed binder)
chain: MGSWFEFDQRLDAITFRLWALGGSEAELAEFEDVIALFEYHLQDYKGKGNPEVEALEVEAWAIFHELGAYRHN
B38: D domain of SEQ ID NO: 595 (designed binder)
chain: MGSWYEFNMRLGAIDDRLQALGGSEAELAWFEDMIAIFEDDLQIYKGKGNPEVEALEQEAAAIHQELWAYRHN
B39: D domain of SEQ ID NO: 611 (designed binder)
chain: MGSWYEFVSRLDAIEYRLWALGGSEAELAWFEWDIADFEQGLQFYKGKGNPEVEALAQEANAIGSELTAYRHN
B40: D domain of SEQ ID NO: 593 (designed binder)
chain: MGSWVEFIMRLDAIYERLDALGGSEAELAEFEWHIADFEDHLQWYKGKGNPEVEALFEEADAIWEELWAYRHN

The test has as its target T1, CD123. Nature of the test: ELISA. On the set-up: unit not given here.
B1 came in with an ELISA_avg of 6.7.
The molecule B2 came in with an ELISA_avg of 4.4.
The figure for B3 is 4.3; for B4 it is 5.4; for B5 it is 3.3.
The figure for B6 is 3.6; for B7 it is 3.5.
The figure for B8 is 3.6; for B9 it is 4.1; for B10 it is 3.5.
On to B11, for which the ELISA_avg came out at 5.9.
Take B12: the ELISA_avg worked out at 3.6.
The figure for B13 is 4.1; for B14 it is 4.4; for B15 it is 6.4.
The figure for B16 is 3.3; for B17 it is 4.7.
The figure for B18 is 4.4; for B19 it is 9.5.
Consider B20, for which the ELISA_avg stood at 5.8.
The figure for B21 is 8.2.
The figure for B22 is 5.2.
B23 yielded an ELISA_avg of 3.8.
The molecule B24 returned an ELISA_avg of 3.7.
The figure for B25 is 3.2; for B26 it is 3.4; for B27 it is 4.5.
The figure for B28 is 3.7; for B29 it is 3.9; for B30 it is 5.3.
The figure for B31 is 4; for B32 it is 3.2.
Take B33: the ELISA_avg amounted to 3.4.
The figure for B34 is 6.8; for B35 it is 3.6.
The figure for B36 is 3.1.
The figure for B37 is 3.2; for B38 it is 3.8.
As to B39, the ELISA_avg was 3.2.
The figure for B40 is 6.4.

The values are drawn from patent publication US20250026849A1 (ARCELLX, published 2025).
